Laboratory results from patent CN111303278A.

Columns and labels:
[1] = biological target: RSV G中央保守域(CCD)生物素结合的肽 SYM-1706 (RSV); assay: ELISA, biotinylated peptide on avidin plate, mAb titrated
长RSV G肽 (表15) = assay: as above
[2] = biological target: RSV株A/长(ATCC目录号VR-26)的G蛋白 (RSV A/长) (UniProt P20895); assay: cell-based or functional assay

B1: CB017.5L (antibody, V domains shown)
VH: QVQLVESGGGVVQPGRSLRLSCSASGFTFSVYAMHWVRQAPGQGLEWVAIIWYDGSNKYYADSVKGRFTISRDNSKETLYLQMNSLRVEDTAVYYCARDPIVGHTRDGLDVWGQGTTVTVSS
VL: SYELTQPPSVSVSPGQTARVTCSGDAMAEQYTYWYQQKPGQAPVLIIFKDTERPSGIPERFSGSSSGTTVTLTISGVQTEDEADYYCQSTDSSGTSWVFGGGTKLTVL
B1 gave an IC50 [1] of 0.02 µg/mL and an IC50 (长RSV G肽 (表15)) of 0.02 µg/mL.

B2: CB030.1 (antibody, V domains shown)
VH: QVQLVQSGAEMKRPGSSVKVSCKASGGTFSTFAINWVRQAPGQGFEWMGGVIPGFDSANYAQKFQGRLTMSADESTSTVYMELSSLRSDDTAVYYCAGNSGYCSGDSCAPNWGPGTLVTVSS
VL: DIVMTQSPLSLPVTPGEPASISCRSSQSLVHSNGYSYLDWYLQKPGQSPQLLIYLGSNRPSGVPDRFSGSGSGTDFTLKISRVEAEDVGVYFCMQNLQTPTFGGGTKVEIK
B2 gave an IC50 [1] of 0.02 µg/mL and an IC50 (长RSV G肽 (表15)) of 0.02 µg/mL.

B3: CR9505 (antibody, from another filing, V domains shown)
VH: EVQLQQSGPELVKPGTSVKISCKASGYSFTGFTMNWVKQSHGKNLEWFGLINPFNGNTGYNQKFKGKATLTVDKSSSTAFMELLSLTSEDSAVYYCARSGKSYDYEAWFTYWGQGTLVTVSA
VL: DIVMTQTTLSLPVSLGNQASISCRSSQTIVHTNGNTYLEWYLQKPGQSPKLLIYKVSNRFSGVPDRFSGSGSGTDFILNISRVEAEDLGVYYCFQGSHVPFTFGSGTKLEIKR
Work on B3 yielded an IC50 (空斑减少分析, 50%中和空斑形成) [2] of 0.018 µg/mL.
